Measurements from patent US20250326860A1 (ADAGENE PTE, published 2025).
Values joined by “and” are separate entries in the source; they are usually repeats but may differ in a detail not shown here. Identical values can stand only once.

Legend:
[1] = biological target: T1, human CD3 on cells (Jurkat cells, human T cells) (human, UniProt P07766 23-207); assay: cell-based or functional assay
[2] = biological target: T1, human CD3 on cells (Jurkat cells, human …); assay: flow cytometry on Jurkat cells, APC anti-human IgG secondary antibody
Description: The Jurkat cells were thawed, washed, and cultured in an incubator. Jurkat cells were washed and 1×10⁵ Jurkat cells/well were aliquoted into 96-well plate and incubated with test articles for 1 hour at 4° C. After centrifugation and washing, Jurkat cells were further incubated with the secondary antibody APC anti-Human IgG for 30 minutes at 4° C. After centrifugation and washing, the Jurkat cells labelled with antibodies were re-suspended in 2% FBS DPBS and then were analyzed by FACS.

[3] = biological target: T1, human CD3 on cells (Jurkat cells, human …); assay: binding to human CD3+ T cells
[4] = biological target: T1, human CD3 on cells (Jurkat cells, human …); assay: binding to human CD4+ T cells
[5] = biological target: T1, human CD3 on cells (Jurkat cells, human …); assay: binding to human CD8+ T cells
[6] = biological target: T1, human CD3 on cells (Jurkat cells, human …); assay: flow cytometry, human CD3+ T cells
Source text: (§1) Human PBMCs were freshly isolated from the blood of healthy donors by density gradient centrifugation using Histopaque-1077 (Sigma). Human CD3+ T cells were further isolated from PBMCs using the Human T Cell Enrichment Kit (Stem Cell Technologies). Monkey PBMCs were isolated from a naïve cynomolgus monkey by density gradient centrifugation using Histopaque-1077 (Sigma). Monkey CD3+ T cells were isolated from PBMCs using the Pan T Cell Isolation Kit Non-Human Primate (Miltenyi Biotec). Purified human or monkey CD3+ T cells were stained with the testing antibodies as the primary antibody and the APC-labelled anti-human-Fc antibody (BioLegend) as the secondary antibody. After washing, the cells were analyzed on the CytoFLEX flow cytometer (Beckman Coulter) and the data was analyzed by FlowJo software.

[7] = biological target: T2, cynomolgus monkey CD3 on T cells (cynomolgus monkey, UniProt Q95LI5 22-198); assay: flow cytometry, monkey CD3+ T cells
T2 construct: whole, on cells
T2 sequence (Q95LI5 22-198): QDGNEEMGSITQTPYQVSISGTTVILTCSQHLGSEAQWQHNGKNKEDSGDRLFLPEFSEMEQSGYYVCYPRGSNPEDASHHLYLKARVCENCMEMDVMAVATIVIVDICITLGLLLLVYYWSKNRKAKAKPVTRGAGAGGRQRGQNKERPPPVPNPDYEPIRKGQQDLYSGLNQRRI
Source text: as §1

[8] = biological target: T3, human CD20 on cells (human B cells; Raji, SU-DHL-8, SU-DHL-4, A3KAW, NAMALWA) (human, UniProt P11836 1-297); assay: flow cytometry, human B cells
T3 construct: whole, on cells
T3 sequence (looked up): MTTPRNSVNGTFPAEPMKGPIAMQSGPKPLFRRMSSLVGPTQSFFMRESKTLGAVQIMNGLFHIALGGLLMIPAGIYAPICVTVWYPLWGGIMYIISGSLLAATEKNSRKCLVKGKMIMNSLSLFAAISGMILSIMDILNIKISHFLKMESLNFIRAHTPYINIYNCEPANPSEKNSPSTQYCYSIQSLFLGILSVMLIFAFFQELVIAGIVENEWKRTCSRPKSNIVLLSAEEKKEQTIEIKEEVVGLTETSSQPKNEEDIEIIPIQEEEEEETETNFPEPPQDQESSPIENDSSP
Description: After washing the cells twice with PBS supplemented with 2% FBS, cell surface bound antibody was detected by incubating the cells with APC-labeled mouse anti-human IgG Fc secondary antibody for 30 minutes at 4° C. Cells were washed and detected by FACS using Cytoflex (BeckMan) and data was analyzed by FlowJo.

[9] = biological target: T4, cynomolgus monkey CD20 on B cells (cynomolgus monkey, UniProt M4ZHZ6 1-297); assay: flow cytometry, monkey B cells
T4 construct: whole, on cells
T4 sequence: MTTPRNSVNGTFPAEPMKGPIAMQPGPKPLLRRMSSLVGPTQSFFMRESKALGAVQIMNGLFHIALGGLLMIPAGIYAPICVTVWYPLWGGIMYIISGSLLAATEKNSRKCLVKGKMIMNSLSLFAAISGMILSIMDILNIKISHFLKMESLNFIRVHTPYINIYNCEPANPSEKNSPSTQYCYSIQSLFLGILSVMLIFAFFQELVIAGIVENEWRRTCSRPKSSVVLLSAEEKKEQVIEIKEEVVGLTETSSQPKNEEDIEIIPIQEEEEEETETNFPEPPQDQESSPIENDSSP

[10] = biological target: T2, cynomolgus monkey CD3 on T cells; assay: flow cytometry, monkey CD4+ T cells
Description: (§2) Binding of CD20xCD3 bispecific or SAFE-bispecific antibodies to purified human CD3+ T cells was determined by flow cytometry. Briefly, human or monkey PBMC were freshly purified with Ficoll gradient solution—Histopaque 1077 (Sigma) from a healthy donor and CD3+ T cells were isolated using EasySep™ Human T cell Enrichment Kit (StemCell). Before staining, […] human Fc receptors on CD3+ T cells were blocked with Human Fc Block (BD). Then cells were incubated with fluorescence labeled antibody mixture (APC-Cy7 Mouse Anti-human CD3, PerCP-CyTM5.5 Anti-human CD4 and FITC anti-human CD8) for 15 minutes at 4° C. After washing the cells once with PBS supplemented with 2% FBS, cells were aliquoted to 96-well plates at 2×10⁵ cells per well, and cells were incubated with serial diluted bispecific, SAFE-bispecific or IgG1 isotype control antibodies for 30 minutes at 4° C. After washing the cells twice with PBS supplemented with 2% FBS, cell surface bound antibody was detected by incubating the cells with APC-labeled mouse anti-human IgG Fc secondary antibody for 30 minutes at 4° C. Cells were washed and detected by FACS using Cytoflex (BeckMan) and data was analyzed by FlowJo. The mean fluorescence (MFI) of each antibody binding to human or monkey CD4+ T cells and CD8+ T cell populations were fitted with four-parameter non-linear regression to get EC₅₀ values by GraphPad Prism software.

[11] = biological target: T2, cynomolgus monkey CD3 on T cells; assay: flow cytometry, monkey CD8+ T cells
Description: as §2

T1 sequence (P07766 23-207): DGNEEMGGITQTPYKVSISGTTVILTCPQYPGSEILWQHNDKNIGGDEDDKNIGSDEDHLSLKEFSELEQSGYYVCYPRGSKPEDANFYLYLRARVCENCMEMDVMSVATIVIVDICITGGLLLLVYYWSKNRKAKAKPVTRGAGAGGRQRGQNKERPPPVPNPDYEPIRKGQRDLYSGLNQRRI

B1: TAC2225 (antibody, V domains shown)
VH: EVQLVESGGGLVQPGGSLRLSCAASGFTFNTYAMNWVRQAPGKGLEWVGRIRSKYNNYATYYADSVKGRFTISRDDSKNTLYLQMNSLRAEDTAVYYCVRHGNFGNSYVSWFAYWGQGTLVTVSS
VL: QAVVTQEPSLTVSPGGTVTLTCGSSTGAVTTSNYANWVQQKPGQAPRGLIGGTNKRAPGVPARFSGSLLGGKAALTLSGAQPEDEAEYYCALWYSNLWVFGGGTKLTVL
notes: also called parental cross-reactive anti-CD3 antibody; humanized SP34
In the case of B1, the “Jurkat NFAT reporter assay EC50” value [1] is reported as 0.02 nM, the “Masking efficiency (Jurkat NFAT reporter assay)” value [1] is reported as 1 fold and the “EC50 (read off the curve)” value [2] is reported as ~0.7 nM and ~0.3 nM and ~0.5 nM and ~0.6 nM.

B2: TY25455 (bispecific antibody, human IgG1, kappa, N297A)
light: QIVLSQSPAILSASPGEKVTMTCRASSSVSYIHWFQQKPGKSPKPWIYATSNLASGVPVRFSGSGSGTSYSLTISRVEAEDAATYYCQQWTSNPPTFGGGTKVEIKRTVAAPSVFIFPPSDEQLKSGTASVVCLLNNFYPREAKVQWKVDNALQSGNSQESVTEQDSKDSTYSLSSTLTLSKADYEKHKVYACEVTHQGLSSPVTKSFNRGEC
heavy: EVQLVQSGAEVKKPGSSVKVSCKASGYTFTSYNMHWVRQAPGKGLEWIGAIYPGSGDTSYNQKFKGRVTITADKSTSTAYMELSSLRSEDTAVYYCARSTYYGGDWYFNVWGQGTLVTVSSASTKGPSVFPLAPSSKSTSGGTAALGCLVKDYFPEPVTVSWNSGALTSGVHTFPAVLQSSGLYSLSSVVTVPSSSLGTQTYICNVNHKPSNTKVDKKVEPKSCDKTHTCPPCPAPELLGGPSVFLFPPKPKDTLMISRTPEVTCVVVDVSHEDPEVKFNWYVDGVEVHNAKTKPREEQYASTYRVVSVLTVLHQDWLNGKEYKCKVSNKALPAPIEKTISKAKGQPREPQVYTLPPSRKKLTKNQVKLTCLVKGFYPSDIAVEWESNGQPENNYKTTPPVLDCDGSFFLYSKLTVDKSRWQQGNVFSCSVMHEALHNHYTQKSLSLSPGK
chain: QAVVTQEPSLTVSPGGTVTLTCGSSTGAVTTSNYPNWVQQKPGQAPRGLIGGTNKRAPGVPARFSGSLLGGKAALTLSGAQPEDEAEYYCALWYSNLWVFGGGTKLTVLGGGGSGGGGSGGGGSGGGGSEVQLVESGGGLVQPGGSLRLSCAASGFTFNTYAINWVRQAPGKGLEWVGRIRSKYNNYATYYAESVKGRFTISRDDSKNTLYLQINSLRAEDTAVYYCVRHGNFGTSYVSWFAYWGQGTLVTVSSEPKSSDKTHTCPPCPAPELLGGPSVFLFPPKPKDTLMISRTPEVTCVVVDVSHEDPEVKFNWYVDGVEVHNAKTKPREEQYASTYRVVSVLTVLHQDWLNGKEYKCKVSNKALPAPIEKTISKAKGQPREPQVYTDPPSRDELTKNQVSLTCLVDGFYPSDIAVEWESNGQPENCYKTTPPVLDSDGSFFLYSKLTVDKSRWQQGNVFSCSVMHEALHNHYTQDSLSLSPGK
notes: also called parental CD20xCD3 bispecific antibody of TY25606; TY2455
With B2 the EC50 [3] was 21.7 nM, the EC50 [4] was 18.1 nM and the EC50 [5] was 25.4 nM. The EC50 [6] was 9.52 nM, the “max MFI” value [6] was 4850 MFI and the EC50 [7] was 10.5 nM. The “max MFI” value [7] was 2100 MFI, the binding result [8] was “binds” and the EC50 [9] was 39.1 nM. For the same binder, the EC50 [10] was 27.3 nM and the EC50 [11] was 82.1 nM.
